This assay addresses human wild type c-RET expressed in 3T3 fibroblasts (human) (UniProt P07949). The assay is described as follows: cell-based or functional assay.

Chain of ^125I-GDNF (human GDNF from PeproTech EC Ltd. or rat GDNF from C. F. Ibanez) (ligand) (P39905 78-211): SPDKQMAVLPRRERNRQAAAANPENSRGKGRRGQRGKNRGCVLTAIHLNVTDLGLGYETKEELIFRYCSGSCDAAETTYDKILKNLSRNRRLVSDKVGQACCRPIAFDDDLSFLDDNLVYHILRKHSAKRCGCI
Chain of human wild type c-RET expressed in 3T3 fibroblasts (human) (P07949 29-1114): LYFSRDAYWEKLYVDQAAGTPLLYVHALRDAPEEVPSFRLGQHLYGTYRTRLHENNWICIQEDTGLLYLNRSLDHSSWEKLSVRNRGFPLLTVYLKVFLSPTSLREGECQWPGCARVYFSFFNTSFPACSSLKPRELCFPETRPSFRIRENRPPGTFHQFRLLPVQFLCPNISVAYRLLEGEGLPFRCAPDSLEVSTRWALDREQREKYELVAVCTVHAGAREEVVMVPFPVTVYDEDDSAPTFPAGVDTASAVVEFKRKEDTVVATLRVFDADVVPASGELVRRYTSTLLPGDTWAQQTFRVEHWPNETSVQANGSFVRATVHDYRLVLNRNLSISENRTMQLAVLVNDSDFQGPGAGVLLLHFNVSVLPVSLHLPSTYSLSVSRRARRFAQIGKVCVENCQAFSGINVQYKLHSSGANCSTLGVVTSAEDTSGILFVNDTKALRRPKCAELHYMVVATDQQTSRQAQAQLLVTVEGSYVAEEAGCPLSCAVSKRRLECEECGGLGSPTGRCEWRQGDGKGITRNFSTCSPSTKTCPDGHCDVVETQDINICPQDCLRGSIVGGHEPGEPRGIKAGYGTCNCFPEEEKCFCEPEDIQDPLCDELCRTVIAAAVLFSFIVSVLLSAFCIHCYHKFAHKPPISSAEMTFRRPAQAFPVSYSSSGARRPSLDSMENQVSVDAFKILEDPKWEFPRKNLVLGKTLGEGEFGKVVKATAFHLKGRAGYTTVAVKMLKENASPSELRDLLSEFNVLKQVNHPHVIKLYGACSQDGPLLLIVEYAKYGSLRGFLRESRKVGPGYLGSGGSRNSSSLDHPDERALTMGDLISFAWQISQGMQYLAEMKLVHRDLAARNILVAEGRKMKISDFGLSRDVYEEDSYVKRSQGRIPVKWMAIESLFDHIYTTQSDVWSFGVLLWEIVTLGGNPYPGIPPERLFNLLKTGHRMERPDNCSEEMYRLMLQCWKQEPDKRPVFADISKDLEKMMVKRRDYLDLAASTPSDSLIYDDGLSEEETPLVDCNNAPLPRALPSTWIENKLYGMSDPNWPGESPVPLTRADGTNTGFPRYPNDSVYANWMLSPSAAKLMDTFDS

Take “^125I-GDNF (human GDNF from PeproTech EC Ltd. or rat GDNF from C. F. Ibanez) (ligand)”: the tyrosine phosphorylation of c-RET in c-ret-3T3 cells, time course at 50 ng/ml GDNF was 5 min and the tyrosine phosphorylation of the 160 kD c-RET isoform in c-ret-3T3 cells, dose-response, 5 min was over 25 ng/mL.

The record behind these values is patent US20040126819A1.
